Bridge positions count the residues as written; N and C are the ends. Square brackets hold non-standard residues; d marks the D form. dNle = CCCC[C@@H](N)C(=O)O
B1: helianorphin-4 (peptide)
peptide: cyclo(CTKSIPPICYGGFLRRI)
modifications: disulfide 1-9 (inferred)
notes: source: synthetic peptide (Fmoc chemistry, backbone cyclised, oxidised, RP-HPLC purified)
B2: helianorphin-3 (peptide)
peptide: cyclo(CYGGFLRRICFPDGR)
modifications: disulfide 1-10 (inferred)
notes: as for B1
B3: helianorphin-1 (peptide)
peptide: cyclo(CYGGFLRRIRPKLKCFPDGR)
modifications: disulfide 1-15 (inferred)
B4: helianorphin-2 (peptide)
peptide: cyclo(CTKSIPPICYGGFLRRIRPKLK)
modifications: disulfide 1-9 (inferred)
notes: as for B1
B5: helianorphin-12 (peptide)
chain: cyclo(CT[dF][dF][dNle][dR]PICFPDGR)
modifications: disulfide 1-9 (inferred)
B6: helianorphin-19 (peptide)
peptide: cyclo(CYGGFLRRCIRPKLK)
modifications: disulfide 1-9 (inferred)
notes: dyn A 1–13 divided into two fragments (YGGFLRR and IRPKLK) placed in the two loops of the SFTI-1 scaffold; source: synthetic peptide (Fmoc chemistry, backbone cyclised, oxidised, RP-HPLC purified)
B7: helianorphin-6 (peptide)
peptide: cyclo(CTYGGFLRCFPDGR)
modifications: disulfide 1-9 (inferred)
notes: SFTI-1 scaffold with dyn A 1–6 (YGGFLR) grafted after CT; source: synthetic peptide (Fmoc chemistry, backbone cyclised, oxidised, RP-HPLC purified)
B8: helianorphin-8 (peptide)
peptide: cyclo(CTYGGFPICFPDGR)
modifications: disulfide 1-9 (inferred)
notes: SFTI-1 scaffold with dyn A 1–4 (YGGF) grafted after CT; source: synthetic peptide (Fmoc chemistry, backbone cyclised, oxidised, RP-HPLC purified)
B9: helianorphin-5 (peptide)
peptide: cyclo(CYGGFLRICFPDGR)
modifications: disulfide 1-9 (inferred)
notes: SFTI-1 scaffold with dyn A 1–6 (YGGFLR) grafted after the first Cys; source: synthetic peptide (Fmoc chemistry, backbone cyclised, oxidised, RP-HPLC purified)
B10: helianorphin-10 (peptide)
peptide: cyclo(CT[dF][dF][dL][dK]PICFPDGR)
modifications: disulfide 1-9 (inferred)
notes: as for B1
B11: helianorphin-11 (peptide)
peptide: cyclo(CTASIPPIC[dF][dF][dL][dK]R)
modifications: disulfide 1-9 (inferred)
notes: as for B1
B12: helianorphin-13 (peptide)
chain: cyclo(CTASIPPIC[dF][dF][dNle][dR]R)
modifications: disulfide 1-9 (inferred)
B13: helianorphin-9 (peptide)
peptide: cyclo(CTASIPPICYGGFR)
modifications: disulfide 1-9 (inferred)
notes: SFTI-1 scaffold (K replaced with A) with dyn A 1–4 (YGGF) grafted after the second Cys; source: synthetic peptide (Fmoc chemistry, backbone cyclised, oxidised, RP-HPLC purified)
B14: helianorphin-7 (peptide)
peptide: cyclo(CTASIPPICYGGFLR)
modifications: disulfide 1-9 (inferred)
notes: SFTI-1 scaffold (K replaced with A) with YGGFL grafted after the second Cys; source: synthetic peptide (Fmoc chemistry, backbone cyclised, oxidised, RP-HPLC purified)
B15: sunflower trypsin inhibitor-1 (SFTI-1) (peptide)
peptide: cyclo(CTKSIPPICFPDGR)
modifications: disulfide 1-9 (inferred)
notes: SFTI-1, 14-residue cyclic peptide from the seeds of sunflower (Helianthus annuus); The methods say that all peptides were synthesised; source: synthetic peptide (Fmoc chemistry, backbone cyclised, oxidised, RP-HPLC purified)
B16: helianorphin-18 (peptide)
peptide: cyclo(CTYGGFLRCRIRPKLK)
modifications: disulfide 1-9 (inferred)
notes: dyn A 1–13 divided into two fragments (YGGFLR and RIRPKLK) placed in the two loops of the SFTI-1 scaffold; source: synthetic peptide (Fmoc chemistry, backbone cyclised, oxidised, RP-HPLC purified)

Each binder was assayed against T1, mouse κ-opioid receptor (KOR) tagged with EGFP (mouse, UniProt P33534 1-380) (assay: cell-based or functional assay). Conditions: not given.

Row | Binder | cAMP inhibition in HEK293 cells stably expressing the mouse KOR, EC50 [nM] | cAMP inhibition in HEK293 cells stably expressing the mouse KOR, Emax [%]
1 | B1 | 4700 | 87.8
2 | B2 | 1400 | 85.1
3 | B3 | – | 106
4 | B4 | 1300 | 102
5 | B5 | – | 117
6 | B6 | 45 | 108

Molecular target: T1, mouse κ-opioid receptor (KOR) tagged …
Test: cell-based or functional assay
Conditions: not given
Remark: another data set of the same source

Row | Binder | β-arrestin-2 recruitment to the KOR (BRET, HEK293 cells with mouse KOR-EGFP and β-arrestin-2-nano-luciferase), EC50 [nM]
7 | B6 | 1400

These binders were tested against T1, mouse κ-opioid receptor (KOR) tagged … (assay: radioligand binding; two-point displacement: 1 nM [3H]-diprenorphine with or without 10 μM or 100 nM peptide on membranes of HEK293 cells stably expressing the mouse KOR). Conditions: one partner purified.

Row | Binder | Ki [nM]
8 | B7 | > 10000
9 | B8 | > 10000
10 | B9 | > 10000
11 | B10 | > 10000
12 | B11 | > 10000
13 | B12 | > 10000
14 | B13 | > 10000
15 | B14 | > 10000

These binders were tested against T1, mouse κ-opioid receptor (KOR) tagged … (assay: radioligand binding; three concentrations of SFTI-1 (μM), displacement of 1 nM [3H]-diprenorphine on membranes of HEK293 cells stably expressing the mouse KOR). Conditions: one partner purified.

Row | Binder | Ki [nM]
16 | B15 | > 30000

Each binder was assayed against T2, mouse μ-opioid receptor (MOR) (mouse, UniProt P42866 1-398) (assay: radioligand binding; competition against [3H]-diprenorphine on membranes of HEK293 cells stably expressing the mouse MOR (50 μg) or DOR (20 μg); 50 mM Tris–HCl pH 7.4, 10 mM MgCl2, 0.1% BSA; 1 h at 37 °C). Conditions: one partner purified.
T2 construct: μ-opioid receptor, mouse; the construct is not described; source: HEK293, stably expressing, membrane preparations

Row | Binder | Ki [nM]
17 | B6 | > 10000

Each binder was assayed against T3, mouse δ-opioid receptor (DOR) (mouse, UniProt P32300 1-372) in the same assay as above. Conditions: one partner purified.
T3 construct: δ-opioid receptor, mouse; the construct is not described; source: HEK293, stably expressing, membrane preparations

Row | Binder | Ki [nM]
18 | B6 | > 10000

Each binder was assayed against T1, mouse κ-opioid receptor (KOR) tagged … (assay: radioligand binding; concentration-dependent competition against 1 nM [3H]-diprenorphine on membranes (7 μg/assay) of HEK293 cells stably expressing the mouse KOR; 50 mM Tris–HCl pH 7.4, 10 mM MgCl2, 0.1% BSA; 1 h at 37 °C; Ki from IC50 by Cheng and Prusoff). Conditions: one partner purified.

Row | Binder | Ki [nM]
19 | B1 | 2500
20 | B2 | 3200
21 | B4 | 97
22 | B6 | 21
23 | B16 | 650
